The record followed here is publication PMC2696559.

The data set has as its target histone H2b (human, UniProt Q16778 1-126). The data set is described as follows: EMSA. A general note: Mobility shift assays separate free from complexed probe on a gel.

For GGAGGAGGAGGAGGAG (ssDNA) [16-mer oligonucleotide], the binding result is on record as “binds”.
